Here are results for one molecule from patent publication US20210292433A1 (MUSC FOUNDATION FOR RESEARCH DEVELOPMENT, published 2021).

For the assay, the target named is T1, human GARP (Glycoprotein A Repetitions Predominant, LRRC32) stably expressed on Pre-B (70Z/3) cells (human, UniProt Q14392 20-662).
T1 construct: whole, on cells; also called hGARP; huGARP
T1 sequence (looked up): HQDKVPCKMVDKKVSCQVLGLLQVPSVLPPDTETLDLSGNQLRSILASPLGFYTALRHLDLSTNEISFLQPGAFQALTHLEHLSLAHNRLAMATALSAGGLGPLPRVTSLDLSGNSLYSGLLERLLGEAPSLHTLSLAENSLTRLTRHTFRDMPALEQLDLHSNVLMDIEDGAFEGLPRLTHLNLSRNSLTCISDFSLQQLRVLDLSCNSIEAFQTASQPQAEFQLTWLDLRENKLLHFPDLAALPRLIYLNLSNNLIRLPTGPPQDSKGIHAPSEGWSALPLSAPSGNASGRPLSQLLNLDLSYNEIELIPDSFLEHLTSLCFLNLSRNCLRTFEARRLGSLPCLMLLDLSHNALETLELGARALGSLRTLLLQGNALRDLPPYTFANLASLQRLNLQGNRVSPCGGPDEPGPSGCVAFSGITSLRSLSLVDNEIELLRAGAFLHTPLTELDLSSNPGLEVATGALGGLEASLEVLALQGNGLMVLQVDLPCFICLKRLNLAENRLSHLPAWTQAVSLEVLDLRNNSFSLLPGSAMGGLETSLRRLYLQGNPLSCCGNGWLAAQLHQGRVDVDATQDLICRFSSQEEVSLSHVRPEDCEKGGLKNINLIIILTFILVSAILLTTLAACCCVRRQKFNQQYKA
The experiment in a line: flow cytometry on Pre-B cells stably expressing human GARP (FIG. 7A). (In general: Flow cytometry measures light scatter and fluorescence of single cells or particles in a stream.)

B1: 5C5 anti-GARP monoclonal antibody (antibody, V domains shown)
VH: EVKLVESGGGSVKPGGSLKLSCAASGFTFSNYVMSWVRQTPEKRLEWVATISSGGSYTYYPDSVKGRLTISRDNAKNTLYLQMSSLRSEDTAMYYCARGYDNGDYVMDYWGQGTSVTVSS
VL: DIVLTQSPASLAVSLGQRATISCRASESVDTYGNSFMHWYQQIPGQPPKVLIYRASNLESGIPARFSGSGSRTDFTLTINPVEAGDVATYYCQQTNEHPPTFGGGTKLEIK
notes: Mouse hybridoma mAb; also called 5C5 (IgG2a)
With B1, the binding result is reported as “binds”.
